Experimental data reported in the RNAGym collection of RNA variant scans (doi:10.7554/elife.90254).

B1: LINE1-full (parent)
chain: UACGUAGGUGGUUUUCCCCUGAUAGUGCUAAGGGGGCCUGGAAGUUUGGACUGGGCAGAGCUCAACACAGCGUGGCAAAGUGGCUGUGGCUAGACUGCCUCUCUGGAUUCCUCGUCACUCAGCAGGGCAUCUCUGAGAGAAAUGCC

Variants of: B1
Test: self-cleavage, relative activity (ratio to wild type); higher = more cleavage; in vitro, sequencing; the parent is a self-cleaving ribozyme

Point of comparison: A50U A94G, self-cleavage 0.29. Against it:
- G49U A78G — higher, 0.91
- G48A A140U — higher, 1.28
- C51U U62A — lower, 0.07
- G48A U100C — higher, 1.9
- A50C A64U — higher, 0.4
- A50C A64G — higher, 0.63
- A50U A69U — lower, 0.07
- C51U A129U — higher, 1.63
- A50U — higher, 1
- A50G — higher, 0.9
- A50C — higher, 1.34
- G49U U81C — higher, 1.54
- G49A A65U — lower, 0.04
- C51U G127A — higher, 1.35
- G49A A124G — higher, 0.55
- A50G A117G — higher, 1.97
- A50G A117U — higher, 0.91
- C51U A78U — higher, 2.19
- C51U A78G — higher, 1.09
- A50U U73A — higher, 0.89
- U52A G54U — higher, 1.84
- A50G G88A — lower, 0.06
- A50G U104A — higher, 0.85
- G49U A142G — higher, 0.85
- C51G U62C — lower, 0.08
- G49A U112C — higher, 1.45
- A50U G54U — higher, 0.66
- U47G A141G — higher, 1.45
- G49A A64U — higher, 0.33
- A50G A67G — higher, 0.37
- A50G U91C — higher, 0.35
- U52C A59G — lower, 0.16
- A50C A94G — lower, 0
- C51A — higher, 1.31
- C51U — higher, 1.3
- C51G — higher, 1.63
- U52A A121G — higher, 1.74
- U47G U91A — higher, 1.93
- U52A C99U — higher, 0.64
- G48A U109A — higher, 2.18
- A50G C99U — higher, 0.43
- G48U U132C — higher, 1.12
- C51A A57G — higher, 0.48
- U47G A59U — higher, 1
- G49A U100C — higher, 1.96
- U47C U119C — higher, 1.48
- C51U A117C — higher, 1.28
- C51U A117G — higher, 1.5
- U52A U91G — lower, 0.08
- U47G — higher, 1.14
- A50G C145A — higher, 1.05
- G49A A138G — higher, 1.11
- U52A U104C — higher, 1.36
- U52A U104A — higher, 2.03
- U52A U104G — higher, 1.53
- G48U U102C — higher, 1.43
- G48A U112C — higher, 1.45
- G48A U112A — higher, 0.83
- A50U G74U — higher, 1.04
- U52A U134C — higher, 2.25
- U52A U134A — higher, 1.04
- G48A U87C — lower, 0.12
- A50G U62A — lower, 0.09
- A50G U62C — lower, 0.1
- A50G U62G — lower, 0.1
- U52A A107G — higher, 0.98
- C51U A67C — lower, 0.05
- C51U A79G — higher, 1.53
- A50C U130C — higher, 1.51
- A50U C118U — higher, 1.02
- C51A C111U — higher, 1.07
- C51U U85C — lower, 0.19
- U52A G144A — higher, 1.44
- G49A A67G — higher, 0.56
- A50G G139U — higher, 0.37
- A50G G122U — higher, 1.09
- A50G U100C — higher, 0.98
- A50G C118U — higher, 0.71
- A50U U108G — higher, 1.11
- G48A A92G — lower, 0.09
- A50U A64G — lower, 0.16
- A50G C95A — lower, 0.05
- A50G C95U — lower, 0.03
